Source: publication PMC5610305

How the values were obtained:
[1] = target: Plasmodium falciparum actin I (unlabeled) (Plasmodium falciparum) (UniProt Q8I4X0); test: co-sedimentation; pelleting assay: unlabeled actin polymerized overnight at 22 °C in F-buffer (50 mM KCl, 4 mM MgCl2, 1 mM EGTA), ultracentrifugation at 434,500 g or 100,000 g, 20 °C, 1 h; supernatant and pellet by SDS-PAGE densitometry; also at different actin concentrations
[2] = target: Plasmodium falciparum actin I (unlabeled) (Plasmodium falciparum) (UniProt Q8I4X0); test: native gel or EMSA; native PAGE of 25 µM polymerized PfActI with and without ultracentrifugation at 434,500 g; running buffer with sample-matched ATP:ADP ratio and 0.1 mM MgCl2; SYPRO Orange, densitometry
[3] = target: Plasmodium falciparum actin I, pyrene-labeled (Plasmodium falciparum) (UniProt Q8I4X0); test: other fluorescence titration; steady-state critical concentration in F-buffer: pyrene-labeled actin polymerized, diluted to a series of concentrations up to 5 µM, 16 h at 20 °C (methods: overnight at 22 °C); two-line fit of pyrene fluorescence
[4] = target: Plasmodium falciparum actin I, pyrene-labeled (Plasmodium falciparum) (UniProt Q8I4X0); test: dilution-induced depolymerization (pyrene fluorescence); 30% pyrene-labeled actins, 5 µM polymerized overnight, diluted 100-fold to 50 nM in F-buffer; single-phase exponential decay fit
[5] = target: Plasmodium falciparum actin I, pyrene-labeled (Plasmodium falciparum) (UniProt Q8I4X0); test: other fluorescence titration; steady-state critical concentration in classical non-polymerizing buffer (G-buffer): pyrene-labeled PfActI, 16 h at 20 °C; two-line fit of pyrene fluorescence

| % of total protein in the pellet (100,000 g) [1] | % of total protein in the pellet (434,500 g) [1] | % of total band intensity as dimers [2] | % of total band intensity as polymers [2] | monomer concentration left at steady state (from the monomer band) [2] | stoichiometry N [2] | Cc (critical concentration, F-buffer, the experiment shown) [3] | Cc (critical concentration, steady state, F-buffer) [3] | apparent rate constant of depolymerization (single-phase decay) [4] | depolymerization rate constant adjusted by filament concentration (100 nm filament length assumed) [4] | half-time of depolymerization [4] | Cc (critical concentration, G-buffer, the experiment shown) [5] | Cc (critical concentration, steady state, G-buffer) [5] | Substance |
| --- | --- | --- | --- | --- | --- | --- | --- | --- | --- | --- | --- | --- | --- |
| 60% | 70% | 56.2% | 43.4% | 0.11 µM | 2 |  |  |  |  |  |  |  | Plasmodium falciparum actin I (unlabeled) (from UniProt Q8I4X0 1-376) (natural protein) |
|  |  |  |  |  |  | 0.13 µM | 0.11 µM | 0.0093 s⁻¹ | 0.4 s⁻¹ | 74 s | 0.04 µM | 0.06 µM | Plasmodium falciparum actin I, pyrene-labeled (from UniProt Q8I4X0 1-376) (natural protein) |
